# Measured values taken from PMC10397247.
# Where two headings read alike, the source gives them in different places.
# T1: 4H3409-AA
# T1 chain: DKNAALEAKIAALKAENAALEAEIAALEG
# T2: 4H3625-AA
# T2 chain: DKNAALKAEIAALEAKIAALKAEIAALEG
# T3: 4H390-AA
# T3 chain: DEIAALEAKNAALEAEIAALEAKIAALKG
# T4: 4H3940-AA
# T4 chain: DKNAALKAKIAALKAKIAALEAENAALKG
# T5: 4H510-AA
# T5 chain: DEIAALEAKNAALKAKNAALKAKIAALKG
# T6: 4H775-AA
# T6 chain: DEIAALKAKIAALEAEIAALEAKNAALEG
# T7: 4H816-AA
# T7 chain: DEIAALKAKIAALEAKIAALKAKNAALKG
# T8: 4H87-AA
# T8 chain: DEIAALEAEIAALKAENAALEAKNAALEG
# T9: 4H688-AA
# T9 chain: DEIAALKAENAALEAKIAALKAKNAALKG
# T10: 4H963-AA
# T10 chain: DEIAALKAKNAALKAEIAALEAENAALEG
# T11: 4H406-AA
# T11 chain: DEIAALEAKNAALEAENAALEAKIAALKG
# T12: 4H452-AA
# T12 chain: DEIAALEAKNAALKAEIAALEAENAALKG
# T13: 4H56-AA
# T13 chain: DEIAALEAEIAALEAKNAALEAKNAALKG
# T14: 4H_APH
# T14 chain: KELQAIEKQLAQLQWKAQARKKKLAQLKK
# T15: 4H_BCR
# T15 chain: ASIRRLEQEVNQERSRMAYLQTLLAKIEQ
# Columns and labels:
# Experiment in all cases: two-hybrid library CCmax;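 further: natural log of median RNA to DNA barcode read ratio; higher means stronger binding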
# 4H3409-AA = biological target: T1, 4H3409-AA
# 4H3625-AA = biological target: T2, 4H3625-AA; settings: mean of both orientations
# 4H390-AA = biological target: T3, 4H390-AA; settings: mean of both orientations
# 4H3940-AA = biological target: T4, 4H3940-AA; settings: mean of both orientations
# 4H510-AA = biological target: T5, 4H510-AA; settings: mean of both orientations
# 4H775-AA = biological target: T6, 4H775-AA; settings: mean of both orientations
# 4H816-AA = biological target: T7, 4H816-AA; settings: mean of both orientations
# 4H87-AA = biological target: T8, 4H87-AA; settings: mean of both orientations
# 4H688-AA = biological target: T9, 4H688-AA
# 4H963-AA = biological target: T10, 4H963-AA; settings: mean of both orientations
# 4H406-AA = biological target: T11, 4H406-AA
# 4H452-AA = biological target: T12, 4H452-AA; settings: mean of both orientations
# 4H56-AA = biological target: T13, 4H56-AA; settings: mean of both orientations
# 4H_APH = biological target: T14, 4H_APH; settings: mean of both orientations
# 4H_BCR = biological target: T15, 4H_BCR; settings: mean of both orientations
# 4H_GCN4 = biological target: 4H_GCN4
# Sequence of 4H_GCN4 (chain, as listed by the source): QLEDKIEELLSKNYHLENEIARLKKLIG
# GCN2_T = biological target: GCN2_T
interaction score (4H3409-AA),interaction score (4H3625-AA),interaction score (4H390-AA),interaction score (4H3940-AA),interaction score (4H510-AA),interaction score (4H775-AA),interaction score (4H816-AA),interaction score (4H87-AA),interaction score (4H688-AA),interaction score (4H963-AA),interaction score (4H406-AA),interaction score (4H452-AA),interaction score (4H56-AA),interaction score (4H688-AA; mean of both orientations),interaction score (4H_APH),interaction score (4H_BCR),interaction score (4H_GCN4),interaction score (GCN2_T),Binder
-1.02,-0.625,-1.28,-1.12,0.697,-1.25,-1.37,-1.93,–,–,–,–,–,–,–,–,–,–,DKNAALEAKIAALKAENAALEAEIAALEG [4H3409-AA]
–,–,–,–,–,–,–,–,-1.23,1.46,–,–,–,–,–,–,–,–,DEIAALKAENAALEAKIAALKAKNAALKG [4H688-AA]
–,–,–,–,–,–,–,–,–,-1.6,-0.644,-0.548,-1.47,-1.54,-1.29,-2.11,-1.67,-1.43,DEIAALEAKNAALEAENAALEAKIAALKG [4H406-AA]
